To fix the notation:
T1: Recombinant protein RHAMM-CT (truncated RHAMM, carboxy terminus containing the HA binding domain, amino acids … (UniProt Q00547 706-766))
T1 chain: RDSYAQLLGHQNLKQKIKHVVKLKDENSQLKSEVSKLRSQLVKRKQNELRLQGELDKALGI

T2: RHAMM (Receptor for Hyaluronic Acid Mediated Motility, CD168) expressed on human cancer cells (human, UniProt O75330 1-724)
T2 sequence (looked up): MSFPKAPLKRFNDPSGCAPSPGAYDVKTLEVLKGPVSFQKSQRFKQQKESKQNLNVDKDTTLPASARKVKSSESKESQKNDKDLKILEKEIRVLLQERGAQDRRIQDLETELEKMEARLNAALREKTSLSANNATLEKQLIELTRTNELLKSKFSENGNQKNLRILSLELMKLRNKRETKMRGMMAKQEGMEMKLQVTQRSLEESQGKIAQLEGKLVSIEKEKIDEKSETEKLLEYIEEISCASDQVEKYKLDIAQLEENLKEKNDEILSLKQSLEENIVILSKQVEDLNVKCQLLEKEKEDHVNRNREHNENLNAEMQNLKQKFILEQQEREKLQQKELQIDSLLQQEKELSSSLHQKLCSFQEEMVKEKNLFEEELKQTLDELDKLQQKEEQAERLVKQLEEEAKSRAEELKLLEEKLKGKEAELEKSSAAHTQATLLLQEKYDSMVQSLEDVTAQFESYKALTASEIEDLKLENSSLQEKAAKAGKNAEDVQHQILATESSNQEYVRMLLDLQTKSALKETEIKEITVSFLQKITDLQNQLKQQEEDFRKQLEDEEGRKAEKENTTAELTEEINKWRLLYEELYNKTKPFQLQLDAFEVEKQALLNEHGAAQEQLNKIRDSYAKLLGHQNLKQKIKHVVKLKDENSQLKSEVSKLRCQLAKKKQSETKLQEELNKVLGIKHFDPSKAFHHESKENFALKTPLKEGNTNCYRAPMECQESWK

T3: Recombinant protein RHAMM-CT (truncated RHAMM, carboxy terminus containing the HA binding domain, amino acids … (Mus musculus (Mouse), UniProt Q00547 706-766))
T3 construct: Expressed in E. coli BL21 from pPAL7-RHAMM as eXact-tagged protein and purified on Profinity eXact resin (fluoride elution); M.W. 7.1 kDa, pI 10.1; also called recombinant RHAMM
T3 sequence: T1 chain

B1: peptide 11a (SEQ ID NO: 11), unmodified tubulin-derived peptide, beta-IV CTT (peptide)
peptide: GEFEEEAEEEVA-NH2
notes: Synthetic 12-mer made on Rink amide MBHA resin
B2: peptide 12a (SEQ ID NO: 12), unmodified tubulin-derived peptide (peptide)
peptide: EAFEDEEEEIDG-NH2
notes: as for B1
B3: peptide 3a (SEQ ID NO: 3), unmodified tubulin-derived peptide, alpha-IIIc CTT (peptide)
peptide: SVEAEAEEGEEY-NH2
notes: as for B1
B4: peptide 9c (SEQ ID NO: 29), fluorescein-conjugated SEQ ID NO: 9 (peptide)
peptide: {FITC}-[Ahx]EEDFGEEAEEEA-NH2
notes: also called fluorescein-conjugated HA mimetic
B5: peptide 1a (SEQ ID NO: 1), unmodified tubulin-derived peptide, alpha-Ia CTT (peptide)
peptide: VEGEGEEEGEEY-NH2
notes: Synthetic 12-mer made on Rink amide MBHA resin; also called ala-CTT
B6: peptide 9a (SEQ ID NO: 9), unmodified tubulin-derived peptide, beta-Ia CTT (peptide)
peptide: EEDFGEEAEEEA-NH2
notes: as for B1

Square brackets hold non-standard residues; d marks the D form. Ends that are not written are not given here. * marks the point of attachment. FITC = O=C1OC2(c3ccc(O)cc3Oc3cc(O)ccc32)c2ccc(NC(=S)*)cc21; Ahx = NCCCCCC(=O)O

For one experiment, the target named is T1, Recombinant protein RHAMM-CT (truncated …). The experiment is described as follows: SPR; RHAMM 500 nM. On the technique in general: SPR reads the build-up and loss of mass on a sensor chip optically.
For B1, the Kd (usually the equilibrium constant for the complex coming apart) is 126 nM.

On to B2, for which the Kd stood at 217 nM.

Take B3: the Kd worked out at 310 nM.

The target of a further experiment is T2, RHAMM (Receptor for Hyaluronic Acid …). The experiment is described as follows: cell-based or functional assay.
Regarding {FITC-Ahx}-FTEAESNMNDLV-NH2 [peptide 14c (SEQ ID NO: 35), fluorescein-conjugated SEQ ID NO: 14], the “reduction in cellular fluorescence (uptake in MDA-MB-231 cells) when cells are blocked with anti-RHAMM mAb” value (shortened to “reduction in cellular fluorescence”) was about 65%.

Regarding B4, the “reduction in cellular fluorescence” value is about 76%.

Take {FITC-Ahx}-VEGEGEEEGEEY-NH2 [peptide 1c (SEQ ID NO: 25), fluorescein-conjugated SEQ ID NO: 1]: the “reduction in cellular fluorescence” value is about 85%.

A further experiment deals with T1, Recombinant protein RHAMM-CT (truncated …). The experiment can be described thus: SPR.
Turning to LEKDYEEVGVDS [6], the Kd amounted to 330 nM.

With DSFEEENEGEEF [5], the Kd was under 1000 nM.

As to FVHWYVGEGMEE [8], the Kd was 176 nM.

On to GEFSEAREDMAA [7], for which the Kd was found to be 180 nM.

With IDSYEDEDEGEE [SEQ ID NO 4 (tubulin-derived peptide containing the DEXEEZ motif)], the Kd was under 1000 nM.

For DSADGEDEGEEY [SEQ ID NO 2 (tubulin-derived peptide containing the DEXEEZ motif)], the Kd was under 1000 nM.

Take B5: the dissociation constant (Kd) is 24 nM.

Regarding B6, the Kd was found to be 32 nM.

On to B3, for which the dissociation constant (Kd) turned out to be 331 nM.

For a further experiment the target is unchanged. The experiment is described as follows: SPR; average.
B1: the dissociation constant (Kd) came to 130 nM.

In the case of B2, the Kd worked out at 211 nM.

Turning to B3, the Kd came out at 331 nM.

For a further experiment, the target named is T3, Recombinant protein RHAMM-CT (truncated …). The experiment can be described thus: ELISA, fluorescein-labelled peptide on immobilised RHAMM. As for the experimental part:
ELISA was carried out to test the ability of FITC-labelled tubulin-derived peptides compete with HA for binding site with RHAMM. Recombinant RHAMM (100 μL, 10 μg/mL in 0.05M PBS, pH=9) was immobilized on 96-well ELISA plates (final concentration of 1 μg/well) and incubated overnight at 4° C. resulting in final amount of protein 1 μg/well. Plates were washed three times with (0.05%) PBS-Tween-20 buffer (200 μL/well), washed with blocking buffer (5% 200 μL/well, PBS-Tween-20 per well), and incubated for 1 hour at room temperature. Following three washes as described above, FITC-labeled tubulin derived peptides (final concentration of 1 μg/mL) and HA (100 μL/well, M.W. 220 kDa, 10 μg/mL in PBS, serial dilutions have been made for HA=1:1, 1:2, 1:4, 1:8, 1:16) were added to plates and incubated overnight at 4° C. Plates were washed as described above, and absorbance was measured at 485/535 nm.
A competitive ELISA was done to determine the selectivity of the peptides to the HA binding domain of RHAMM. In this assay, fluorescein-labelled peptides were used and the effectiveness of unlabelled HA to block the binding of peptides to RHAMM was evaluated. Fluorescein-labelled peptides SEQ ID NOs: 1, 3, 9, 11, 12 and 14, corresponding to peptides 1c, 3c, 9c, 11c, 12c and 14c in FIG. 2B (SEQ ID NOs: 25, 27, 29, 31, 33 and 35) were added to ELISA plates containing immobilized RHAMM, followed by the addition of varying concentration of HA, which is the natural ligand of RHAMM. A decrease in observed fluorescence is seen as HA displaces the fluorescein-labelled peptides if they compete for the same binding site.
In the case of {FITC-Ahx}-FTEAESNMNDLV-NH2 [peptide 14c (SEQ ID NO: 35), fluorescein-conjugated SEQ ID NO: 14], the binding result is listed as “binds”.

Consider B4, for which the binding result is reported as “binds”.

As to {FITC-Ahx}-VEGEGEEEGEEY-NH2 [peptide 1c (SEQ ID NO: 25), fluorescein-conjugated SEQ ID NO: 1], the binding result is “binds”.

For the next experiment the target is unchanged. The experiment is described as follows: SPR-based screening (FIG. 3B legend). As for the experimental part:
ProteON XPR36 system was used for the selection and ranking of different tubulin derived peptides against RHAMM. For immobilization of RHAMM, the ProteON GLC sensor chip surfaces were activated by amine coupling using 100 mM EDAC and 24 mM sulfo-NHS. RHAMM (30 μg/mL in sodium bicarbonate buffer, pH 9.7) was injected at a flow a rate of 30 μl/min. A buffer sample was injected on a different sensor plate for use as a reference. Ethanolamine HCl (1M, pH 8.5) was then injected to deactivate any remaining surface groups. Peptides (10 μM in PBS-T, 2% DMSO) were injected to a RHAMM functionalized surface at 50 μL/min for 3 minutes followed by a 10 minute dissociation (i.e. injection of PBS-T buffer) period. The surfaces were regenerated using two injections of 30 μL of 1M NaCl prior to the injection of the next peptide. In all experiments, reference subtraction was performed using data obtained from reference plate (No RHAMM) and RHAMM functionalized plate.
After immobilization of RHAMM on the SPR sensor chip, injection of a series of tubulin derived peptides was carried out. Association of the peptides with RHAMM proceeded for 3 minutes and the dissociation in analyte free buffer was carried out for 10 minutes. […] For each peptide injection, control sensograms (no immobilized RHAMM and buffer injection) were subtracted from the test sensograms, and the chip surface was regenerated prior to the next peptide injection in order to remove any remaining bound peptides.
With B5, the binding result is listed as “binds”.

Turning to B6, the binding result was “binds”.

For B1, the binding result is on record as “binds”.

B2: the binding result was “binds”.

Turning to B3, the binding result is recorded as “binds”.

The next experiment shares this target. The experiment is described as follows: SPR (GWC SPRimager II), thiol-containing peptide immobilised on maleimide chip, RHAMM injected at 500, 750, 1000 nM, 1:1 Langmuir fit. The method, then:
After peptide screening, GWC SPRimager®II system was used to determine binding kinetic constants. Thiol-containing peptides at 1 nM concentration in milliQ water were immobilized on a maleimide-functionalized gold-plated chip for 3 hours. Excess peptides were removed by washing with milliQ water. For binding studies, a series of concentrations (500 nM, 750 nM, and 1000 nM) of RHAMM were injected over the immobilized peptides. After a 15 min dissociation phase, the sensor chip surface was regenerated for the next peptide sample injection, via treatment with two 10 min pulse injections of regenerating buffer (2 M NaCl in HBS-EP, pH 7.4) at […]. Baseline returned to the initial value after the regeneration step, confirming the removal of all bound analytes. Data were analyzed and the corresponding dissociation constants (KD) were obtained via non-linear regression fitting to a Langmuir binding model. In all experiments, reference subtraction was performed using data obtained from reference plate (no peptide) and peptide functionalized plate.
Consider Ac-C[Ahx]FTEAESNMNDLV-NH2 [peptide 14b (SEQ ID NO: 34), SEQ ID NO: 14 with N-acetyl cysteine modified N-terminus], for which the dissociation constant (Kd) turned out to be 30 nM.

With Ac-C[Ahx]EEDFGEEAEEEA-NH2 [peptide 9b (SEQ ID NO: 28), SEQ ID NO: 9 with N-acetyl cysteine modified N-terminus], the Kd amounted to 32 nM.

Turning to Ac-C[Ahx]VEGEGEEEGEEY-NH2 [peptide 1b (SEQ ID NO: 24), SEQ ID NO: 1 with N-acetyl cysteine modified N-terminus], the Kd is 24 nM.

The target of a further experiment is T1, Recombinant protein RHAMM-CT (truncated …). The experiment can be described thus: SPR. The source holds these as a separate data set.
As for RPDYISWGTQEQ [15], the Kd was under 1000 nM.

VQQLIDEYHAAT [16]: the Kd is under 1000 nM.

For SNMNDLVSEYQQ [13], the Kd was under 1000 nM.

Turning to DNPDEMDTSREI [17], the Kd is under 1000 nM.

Regarding B1, the Kd was 130 nM.

Regarding B2, the equilibrium dissociation constant (Kd) worked out at 211 nM.

In the case of GEFEEEEGEDEA [SEQ ID NO 10 (tubulin-derived peptide containing the EEXEDZ motif)], the Kd was under 1000 nM.

The next experiment has the same target. The experiment can be described thus: SPR; RHAMM 750 nM.
As for Ac-C[Ahx]FTEAESNMNDLV-NH2 [peptide 14b (SEQ ID NO: 34), SEQ ID NO: 14 with N-acetyl cysteine modified N-terminus], the Kd worked out at 29 nM.

For the molecule Ac-C[Ahx]EEDFGEEAEEEA-NH2 [peptide 9b (SEQ ID NO: 28), SEQ ID NO: 9 with N-acetyl cysteine modified N-terminus], the Kd is 33.8 nM.

Regarding B1, the Kd amounted to 145 nM.

On to B2, for which the dissociation constant Kd was 215 nM.

For B3, the equilibrium dissociation constant (Kd) is 325 nM.

Another experiment shares this target. The experiment can be described thus: SPR; RHAMM 1000 nM.
On to Ac-C[Ahx]FTEAESNMNDLV-NH2 [peptide 14b (SEQ ID NO: 34), SEQ ID NO: 14 with N-acetyl cysteine modified N-terminus], for which the equilibrium dissociation constant (Kd) turned out to be 31.9 nM.

As to B1, the Kd was determined as 120 nM.

Consider B2, for which the Kd stood at 201 nM.

For B3, the dissociation constant (Kd) was determined as 358 nM.

The values are drawn from US20160031942A1 (LONDON HEALTH SCIENCES CENTRE RESEARCH, published 2016).
